Target: MHC II molecules of Flt3L-mobilized splenic CD11c+ DCs from Balb/c×C57Bl/6 (I-A^b,d/E^d) F1 mice (mouse (endogenous in splenic DCs))
Assay: affinity purification with mass spectrometry

- amount of peptide eluted from MHC II: 15 fmol/µL
- copies per cell presented on MHC II: 180 copies/cell
Binder: KELEEQLGPVAEETR [… MHC II peptide derived from endogenous apolipoprotein E]

From article PMC3408443
